The target in this assay is T1, GST-tagged SH3 domain of Bin1.
T1 chain: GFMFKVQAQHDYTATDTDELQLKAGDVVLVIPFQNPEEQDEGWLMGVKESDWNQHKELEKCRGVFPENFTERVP
Nature of the assay: GST pulldown. Conditions: parent: 1.0, read off a plot.

Setting [1] is: chain shown with the change, 12 µg GST-Bin-SH3, 6 µg purified Dyn2.

B1: dynamin-2 (human Dyn2 isoform 1), wild type, P50570 S848A (protein)
chain: MGNRGMEELIPLVNKLQDAFSSIGQSCHLDLPQIAVVGGQSAGKSSVLENFVGRDFLPRGSGIVTRRPLILQLIFSKTEHAEFLHCKSKKFTDFDEVRQEIEAETDRVTGTNKGISPVPINLRVYSPHVLNLTLIDLPGITKVPVGDQPPDIEYQIKDMILQFISRESSLILAVTPANMDLANSDALKLAKEVDPQGLRTIGVITKLDLMDEGTDARDVLENKLLPLRRGYIGVVNRSQKDIEGKKDIRAALAAERKFFLSHPAYRHMADRMGTPHLQKTLNQQLTNHIRESLPALRSKLQSQLLSLEKEVEEYKNFRPDDPTRKTKALLQMVQQFGVDFEKRIEGSGDQVDTLELSGGARINRIFHERFPFELVKMEFDEKDLRREISYAIKNIHGVRTGLFTPDLAFEAIVKKQVVKLKEPCLKCVDLVIQELINTVRQCTSKLSSYPRLREETERIVTTYIREREGRTKDQILLLIDIEQSYINTNHEDFIGFANAQQRSTQLNKKRAIPNQGEILVIRRGWLTINNISLMKGGSKEYWFVLTAESLSWYKDEEEKEKKYMLPLDNLKIRDVEKGFMSNKHVFAIFNTEQRNVYKDLRQIELACDSQEDVDSWKASFLRAGVYPEKDQAENEDGAQENTFSMDPQLERQVETIRNLVDSYVAIINKSIRDLMPKTIMHLMINNTKAFIHHELLAYLYSSADQSSLMEESADQAQRRDDMLRMYHALKEALNIIGDISTSTVSTPVPPPVDDTWLQSASSHSPTPQRRPVSSIHPPGRPPAVRGPTPGPPLIPVPVGAAASFSAPPIPSRPGPQSVFANSDLFPAPPQIPSRPVRIPPGIPPGVPARRPPAAPSRPTIIRPAEPSLLD
On to B1, for which the ratio to parent was 0.86 under setting [1] and 1.2 (chain shown with the change;).

B2: dynamin-2 (human Dyn2 isoform 1), wild type, P50570 S856E (protein)
chain: MGNRGMEELIPLVNKLQDAFSSIGQSCHLDLPQIAVVGGQSAGKSSVLENFVGRDFLPRGSGIVTRRPLILQLIFSKTEHAEFLHCKSKKFTDFDEVRQEIEAETDRVTGTNKGISPVPINLRVYSPHVLNLTLIDLPGITKVPVGDQPPDIEYQIKDMILQFISRESSLILAVTPANMDLANSDALKLAKEVDPQGLRTIGVITKLDLMDEGTDARDVLENKLLPLRRGYIGVVNRSQKDIEGKKDIRAALAAERKFFLSHPAYRHMADRMGTPHLQKTLNQQLTNHIRESLPALRSKLQSQLLSLEKEVEEYKNFRPDDPTRKTKALLQMVQQFGVDFEKRIEGSGDQVDTLELSGGARINRIFHERFPFELVKMEFDEKDLRREISYAIKNIHGVRTGLFTPDLAFEAIVKKQVVKLKEPCLKCVDLVIQELINTVRQCTSKLSSYPRLREETERIVTTYIREREGRTKDQILLLIDIEQSYINTNHEDFIGFANAQQRSTQLNKKRAIPNQGEILVIRRGWLTINNISLMKGGSKEYWFVLTAESLSWYKDEEEKEKKYMLPLDNLKIRDVEKGFMSNKHVFAIFNTEQRNVYKDLRQIELACDSQEDVDSWKASFLRAGVYPEKDQAENEDGAQENTFSMDPQLERQVETIRNLVDSYVAIINKSIRDLMPKTIMHLMINNTKAFIHHELLAYLYSSADQSSLMEESADQAQRRDDMLRMYHALKEALNIIGDISTSTVSTPVPPPVDDTWLQSASSHSPTPQRRPVSSIHPPGRPPAVRGPTPGPPLIPVPVGAAASFSAPPIPSRPGPQSVFANSDLFPAPPQIPSRPVRIPPGIPPGVPSRRPPAAPERPTIIRPAEPSLLD
B2: the ratio to parent (chain shown with the change;) turned out to be 1.

B3: dynamin-2 (human Dyn2 isoform 1), wild type, P50570 S848E (protein)
chain: MGNRGMEELIPLVNKLQDAFSSIGQSCHLDLPQIAVVGGQSAGKSSVLENFVGRDFLPRGSGIVTRRPLILQLIFSKTEHAEFLHCKSKKFTDFDEVRQEIEAETDRVTGTNKGISPVPINLRVYSPHVLNLTLIDLPGITKVPVGDQPPDIEYQIKDMILQFISRESSLILAVTPANMDLANSDALKLAKEVDPQGLRTIGVITKLDLMDEGTDARDVLENKLLPLRRGYIGVVNRSQKDIEGKKDIRAALAAERKFFLSHPAYRHMADRMGTPHLQKTLNQQLTNHIRESLPALRSKLQSQLLSLEKEVEEYKNFRPDDPTRKTKALLQMVQQFGVDFEKRIEGSGDQVDTLELSGGARINRIFHERFPFELVKMEFDEKDLRREISYAIKNIHGVRTGLFTPDLAFEAIVKKQVVKLKEPCLKCVDLVIQELINTVRQCTSKLSSYPRLREETERIVTTYIREREGRTKDQILLLIDIEQSYINTNHEDFIGFANAQQRSTQLNKKRAIPNQGEILVIRRGWLTINNISLMKGGSKEYWFVLTAESLSWYKDEEEKEKKYMLPLDNLKIRDVEKGFMSNKHVFAIFNTEQRNVYKDLRQIELACDSQEDVDSWKASFLRAGVYPEKDQAENEDGAQENTFSMDPQLERQVETIRNLVDSYVAIINKSIRDLMPKTIMHLMINNTKAFIHHELLAYLYSSADQSSLMEESADQAQRRDDMLRMYHALKEALNIIGDISTSTVSTPVPPPVDDTWLQSASSHSPTPQRRPVSSIHPPGRPPAVRGPTPGPPLIPVPVGAAASFSAPPIPSRPGPQSVFANSDLFPAPPQIPSRPVRIPPGIPPGVPERRPPAAPSRPTIIRPAEPSLLD
As to B3, the ratio to parent is, setting by setting: under setting [1], 0.42; (chain shown with the change;) 0.66.

B4: dynamin-2 (human Dyn2 isoform 1), wild type, P50570 S856A (protein)
chain: MGNRGMEELIPLVNKLQDAFSSIGQSCHLDLPQIAVVGGQSAGKSSVLENFVGRDFLPRGSGIVTRRPLILQLIFSKTEHAEFLHCKSKKFTDFDEVRQEIEAETDRVTGTNKGISPVPINLRVYSPHVLNLTLIDLPGITKVPVGDQPPDIEYQIKDMILQFISRESSLILAVTPANMDLANSDALKLAKEVDPQGLRTIGVITKLDLMDEGTDARDVLENKLLPLRRGYIGVVNRSQKDIEGKKDIRAALAAERKFFLSHPAYRHMADRMGTPHLQKTLNQQLTNHIRESLPALRSKLQSQLLSLEKEVEEYKNFRPDDPTRKTKALLQMVQQFGVDFEKRIEGSGDQVDTLELSGGARINRIFHERFPFELVKMEFDEKDLRREISYAIKNIHGVRTGLFTPDLAFEAIVKKQVVKLKEPCLKCVDLVIQELINTVRQCTSKLSSYPRLREETERIVTTYIREREGRTKDQILLLIDIEQSYINTNHEDFIGFANAQQRSTQLNKKRAIPNQGEILVIRRGWLTINNISLMKGGSKEYWFVLTAESLSWYKDEEEKEKKYMLPLDNLKIRDVEKGFMSNKHVFAIFNTEQRNVYKDLRQIELACDSQEDVDSWKASFLRAGVYPEKDQAENEDGAQENTFSMDPQLERQVETIRNLVDSYVAIINKSIRDLMPKTIMHLMINNTKAFIHHELLAYLYSSADQSSLMEESADQAQRRDDMLRMYHALKEALNIIGDISTSTVSTPVPPPVDDTWLQSASSHSPTPQRRPVSSIHPPGRPPAVRGPTPGPPLIPVPVGAAASFSAPPIPSRPGPQSVFANSDLFPAPPQIPSRPVRIPPGIPPGVPSRRPPAAPARPTIIRPAEPSLLD
In the case of B4, the ratio to parent (chain shown with the change;) turned out to be 1.1.

Source of the values: PMC9712776.
